# Reference: US20250163158A1 (Astellas, published 2025)
# B1: anti-ITGA11 antibody #014 (antibody, mouse IgG2a, kappa, V domains shown)
# VH: EVQLVESGGGLVQPGGSLRLSCAASGFNLTSSYIHWVRQAPGKGLEWVASISSHSSYTYYADSVKGRFTISADTSKNTAYLQMNSLRAEDTAVYYCARYWYYSAWALDYWGQGTLVTVSS
# VL: DIQMTQSPSSLSASVGDRVTITCRASQSVSSAVAWYQQKPGKAPKLLIYSASSLYSGVPSRFSGSRSGTDFTLTISSLQPEDFATYYCQQSAPYSSLITFGQGTKVEIKR
# Biological target: T1, integrin α11 (ITGA11) (human, UniProt Q9UKX5 23-1188)
# T1 sequence (looked up): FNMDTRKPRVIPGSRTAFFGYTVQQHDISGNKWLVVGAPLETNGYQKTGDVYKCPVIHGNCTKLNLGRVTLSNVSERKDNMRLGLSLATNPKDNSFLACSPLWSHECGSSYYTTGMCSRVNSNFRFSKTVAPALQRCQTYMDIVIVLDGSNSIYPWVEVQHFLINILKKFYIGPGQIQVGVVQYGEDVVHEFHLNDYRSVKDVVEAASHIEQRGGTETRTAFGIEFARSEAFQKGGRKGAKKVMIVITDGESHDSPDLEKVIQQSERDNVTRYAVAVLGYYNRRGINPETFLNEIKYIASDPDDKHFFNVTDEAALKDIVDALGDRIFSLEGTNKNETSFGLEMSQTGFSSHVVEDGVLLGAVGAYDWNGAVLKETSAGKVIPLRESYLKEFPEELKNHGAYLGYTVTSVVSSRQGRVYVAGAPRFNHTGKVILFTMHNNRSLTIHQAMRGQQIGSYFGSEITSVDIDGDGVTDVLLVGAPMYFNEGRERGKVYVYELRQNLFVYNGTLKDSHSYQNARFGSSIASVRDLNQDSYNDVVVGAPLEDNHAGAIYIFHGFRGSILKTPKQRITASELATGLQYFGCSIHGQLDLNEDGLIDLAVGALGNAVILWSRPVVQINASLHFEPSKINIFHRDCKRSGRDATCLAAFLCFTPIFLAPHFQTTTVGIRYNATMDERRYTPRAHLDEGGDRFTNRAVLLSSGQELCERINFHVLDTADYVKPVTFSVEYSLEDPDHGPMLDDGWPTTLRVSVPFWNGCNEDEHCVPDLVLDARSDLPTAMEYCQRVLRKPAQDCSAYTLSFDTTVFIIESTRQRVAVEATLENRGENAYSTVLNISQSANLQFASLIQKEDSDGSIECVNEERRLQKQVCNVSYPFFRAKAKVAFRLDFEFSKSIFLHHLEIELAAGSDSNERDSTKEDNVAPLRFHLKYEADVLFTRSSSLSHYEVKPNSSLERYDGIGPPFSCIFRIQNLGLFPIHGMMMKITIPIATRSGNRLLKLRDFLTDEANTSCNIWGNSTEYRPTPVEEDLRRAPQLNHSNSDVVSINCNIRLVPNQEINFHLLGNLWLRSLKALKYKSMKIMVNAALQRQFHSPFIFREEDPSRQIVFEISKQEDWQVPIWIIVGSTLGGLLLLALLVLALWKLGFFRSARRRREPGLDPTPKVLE
# Test: cell-based or functional assay
binder,measurement,value
B1,"luminescence intensity ratio, ADCC Reporter Bioassay kit, non-senescent IMR-90 cell, relative to the cell without antibody regarded as 1",1.4 ratio
same,"luminescence intensity ratio, ADCC Reporter Bioassay kit, senescent IMR-90 cell, relative to the cell without antibody regarded as 1",4.7 ratio
